Values joined by “and” are separate entries in the source; they are usually repeats but may differ in a detail not shown here. Equal entries are not always repeated.
Test: Mouse weight under anti-CD14-IgG1 dosages of Example 7 (PDX mice)
Format: in vivo
Method: To evaluate concentrations for the anti-CD14-IgG1 antibody, PDX mice were treated with five different concentrations of the IgG1 antibody over a period of 28 days. For these experiments, drug administration on the PDX mice was performed intravenously on alternating 4 days and 3 days.
The five different concentrations of the anti-CD14-IgG1 antibody tested include 5 mg/kg, 10 mg/kg, 15 mg/kg, 25 mg/kg, and 40 mg/kg. A control regimen was utilized as a comparative example. […] The non-specific IgG1 has no binding affinity to antigen. […] Tumor weight and tumor volume were calculated as described above.

B1: D6DD3D001: mouse-derived anti-CD14 IgG1 antibody; VH SEQ ID NO: 1, VL SEQ ID NO: 3, heavy chain SEQ ID NO: 2, light chain SEQ ID NO: 4 (antibody)
heavy: DVQLQQSGPGLVKPSQSLSLTCTVTGYSITSDSAWNWIRQFPGNRLEWMGYISYSGSTSYNPSLKSRISITRDTSKNQFFLQLNSVTTEDTATYYCVRGLRFAYWGQGTLVTVSSPSVFLFPPKPKDTLMISRTPEVTCVVVDVSHEDPEVKFNWYVDGVEVHNAKTKPREEQYNSTYRVVSVLTVLHQDWLNGKEYKCKVSNKALPAPIEKTISKAKGQPREPQVYTLPPSREEMTKNQVSLTCLVKGFYPSDIAVEWESNGQPENNYKTTPPVLDSDGSFFLYSKLTVDKSRWQQGNVFSCSVMHEALHNHYTQKSLSLSPGK
light: DIVLTQSPASLAVSLGQRATISCRASESVDSYVNSFLHWYQQKPGQPPKLLIYRASNLQSGIPARFSGSGSRTDFTLTINPVEADDVATYYCQQSNEDPYTFGGGTKLEIKRTVAAPSVFIFPPSDEQLKSGTASVVCLLNNFYPREAKVQWKVDNALQSGNSQESVTEQDSKDSTYSLSSTLTLSKADYEKHKVYACEVTHQGLSSPVTKSFNRGEC
- Mouse Weight (Day 18, IgG1 (10 mg/kg), per mouse 1-5, 10 mg/kg): 21.27 g and 20.66 g and 21.04 g and 20.85 g and 21.37 g
- Mouse Weight (Day 18, IgG1 (15 mg/kg), per mouse 1-5, 15 mg/kg): 20.73 g and 21.69 g and 20.31 g and 20.9 g and 21.29 g
- Mouse Weight (Day 18, IgG1 (25 mg/kg), per mouse 1-5, 25 mg/kg): 21.14 g and 21.03 g and 20.46 g and 21.57 g and 21.77 g
- Mouse Weight (Day 21, IgG1 (5 mg/kg), per mouse 1-5, 5 mg/kg): 20.92 g and 21.85 g and 21.42 g and 21.87 g and 21.66 g
- Mouse Weight (Day 21, IgG1 (10 mg/kg), per mouse 1-5, 10 mg/kg): 21.25 g and 21.16 g and 20.97 g and 21.13 g and 21.28 g
- Mouse Weight (Day 21, IgG1 (15 mg/kg), per mouse 1-5, 15 mg/kg): 20.6 g and 21.12 g and 21.33 g and 20.4 g and 21.98 g
- Mouse Weight (Day 21, IgG1 (25 mg/kg), per mouse 1-5, 25 mg/kg): 21.3 g and 22.05 g and 21.54 g and 20.62 g and 21.57 g
- Mouse Weight (Day 25, IgG1 (5 mg/kg), per mouse 1-5, 5 mg/kg): 22.45 g and 21.06 g and 21.98 g and 22.14 g and 22.16 g
- Mouse Weight (Day 25, IgG1 (10 mg/kg), per mouse 1-5, 10 mg/kg): 22.27 g and 22.35 g and 21.64 g and 20.37 g and 22.93 g
- Mouse Weight (Day 25, IgG1 (15 mg/kg), per mouse 1-5, 15 mg/kg): 22.28 g and 21.01 g and 22.42 g and 20.52 g and 22.73 g
- Mouse Weight (Day 25, IgG1 (25 mg/kg), per mouse 1-5, 25 mg/kg): 22.17 g and 21.73 g and 22.39 g and 21.5 g and 20.56 g
- Mouse Weight (Day 28, IgG1 (5 mg/kg), per mouse 1-5, 5 mg/kg): 22.42 g and 23.8 g and 22.04 g and 21.81 g and 21.72 g
- Mouse Weight (Day 28, IgG1 (10 mg/kg), per mouse 1-5, 10 mg/kg): 22.71 g and 23.8 g and 21.44 g and 22.24 g and 21.16 g
- Mouse Weight (Day 28, IgG1 (15 mg/kg), per mouse 1-5, 15 mg/kg): 22.57 g and 21.49 g and 23.11 g and 21.72 g and 23.44 g
- Mouse Weight (Day 28, IgG1 (25 mg/kg), per mouse 1-5, 25 mg/kg): 22.62 g and 23.62 g and 22.69 g and 21.64 g and 23.4 g
- Mouse Weight (IgG1 40 mg/kg group, Day 0, individual mice 1-5, 40 mg/kg): 20.64 g and 20.79 g and 20.06 g and 20.43 g and 19.66 g
- Mouse Weight (IgG1 40 mg/kg group, Day 4, individual mice 1-5, 40 mg/kg): 20.37 g and 20.71 g and 19.79 g and 20.56 g and 20.73 g
- Mouse Weight (IgG1 40 mg/kg group, Day 7, individual mice 1-5, 40 mg/kg): 20.29 g and 20.01 g and 20.53 g and 21.04 g and 20.66 g
- Mouse Weight (IgG1 40 mg/kg group, Day 11, individual mice 1-5, 40 mg/kg): 20.49 g and 21.74 g and 20.21 g and 21.3 g and 20.92 g
- Mouse Weight (IgG1 40 mg/kg group, Day 14, individual mice 1-5, 40 mg/kg): 21.19 g and 20.75 g and 20.83 g and 20.91 g and 20.61 g
- Mouse Weight (IgG1 40 mg/kg group, Day 18, individual mice 1-5, 40 mg/kg): 21.32 g and 21.28 g and 21.36 g and 20.36 g and 21.14 g
- Mouse Weight (IgG1 40 mg/kg group, Day 21, individual mice 1-5, 40 mg/kg): 21.75 g and 20.47 g and 21.5 g and 21.64 g and 21.77 g
- Mouse Weight (IgG1 40 mg/kg group, Day 25, individual mice 1-5, 40 mg/kg): 22.33 g and 21.23 g and 22.07 g and 21.9 g and 22.06 g
- Mouse Weight (IgG1 40 mg/kg group, Day 28, individual mice 1-5, 40 mg/kg): 23.59 g and 23.7 g and 22.4 g and 21.39 g and 22.91 g
